This note sets out measurements from patent US20240425885.

Common to all, as to assay: cleavage_in_vitro
Data set [1] concerns T1, OMNI-94 (metagenomic, unknown).
T1 sequence: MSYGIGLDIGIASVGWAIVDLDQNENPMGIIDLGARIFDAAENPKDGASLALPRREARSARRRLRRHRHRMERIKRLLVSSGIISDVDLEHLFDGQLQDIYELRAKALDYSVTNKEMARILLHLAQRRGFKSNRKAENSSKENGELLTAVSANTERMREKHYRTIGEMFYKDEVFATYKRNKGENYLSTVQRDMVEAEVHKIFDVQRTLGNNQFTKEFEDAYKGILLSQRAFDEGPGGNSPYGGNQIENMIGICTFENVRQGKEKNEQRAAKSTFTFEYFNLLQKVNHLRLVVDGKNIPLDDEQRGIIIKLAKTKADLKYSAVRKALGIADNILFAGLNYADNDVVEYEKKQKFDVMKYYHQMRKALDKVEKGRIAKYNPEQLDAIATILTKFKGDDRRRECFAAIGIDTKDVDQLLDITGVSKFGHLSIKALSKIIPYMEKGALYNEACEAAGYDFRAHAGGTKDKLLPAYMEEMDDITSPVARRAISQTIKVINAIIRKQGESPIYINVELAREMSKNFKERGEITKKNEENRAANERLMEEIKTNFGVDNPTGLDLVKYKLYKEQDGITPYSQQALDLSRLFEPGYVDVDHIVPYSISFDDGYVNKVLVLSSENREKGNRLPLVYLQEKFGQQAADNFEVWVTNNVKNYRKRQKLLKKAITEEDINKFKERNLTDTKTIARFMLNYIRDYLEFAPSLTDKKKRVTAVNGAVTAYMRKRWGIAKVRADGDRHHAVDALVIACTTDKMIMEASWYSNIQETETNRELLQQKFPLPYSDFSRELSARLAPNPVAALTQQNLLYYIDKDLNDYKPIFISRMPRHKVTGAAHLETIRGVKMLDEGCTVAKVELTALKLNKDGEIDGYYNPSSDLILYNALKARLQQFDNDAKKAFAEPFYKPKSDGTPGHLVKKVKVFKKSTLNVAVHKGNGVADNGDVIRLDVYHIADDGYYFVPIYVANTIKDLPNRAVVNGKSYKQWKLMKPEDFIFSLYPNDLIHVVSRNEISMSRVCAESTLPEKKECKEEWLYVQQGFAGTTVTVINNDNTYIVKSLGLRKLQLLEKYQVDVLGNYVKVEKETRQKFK
As to conditions: TXTL; PAM NNRRAYGN

The test system of data set [2] is T2, OMNI-138 (metagenomic, unknown).
T2 sequence: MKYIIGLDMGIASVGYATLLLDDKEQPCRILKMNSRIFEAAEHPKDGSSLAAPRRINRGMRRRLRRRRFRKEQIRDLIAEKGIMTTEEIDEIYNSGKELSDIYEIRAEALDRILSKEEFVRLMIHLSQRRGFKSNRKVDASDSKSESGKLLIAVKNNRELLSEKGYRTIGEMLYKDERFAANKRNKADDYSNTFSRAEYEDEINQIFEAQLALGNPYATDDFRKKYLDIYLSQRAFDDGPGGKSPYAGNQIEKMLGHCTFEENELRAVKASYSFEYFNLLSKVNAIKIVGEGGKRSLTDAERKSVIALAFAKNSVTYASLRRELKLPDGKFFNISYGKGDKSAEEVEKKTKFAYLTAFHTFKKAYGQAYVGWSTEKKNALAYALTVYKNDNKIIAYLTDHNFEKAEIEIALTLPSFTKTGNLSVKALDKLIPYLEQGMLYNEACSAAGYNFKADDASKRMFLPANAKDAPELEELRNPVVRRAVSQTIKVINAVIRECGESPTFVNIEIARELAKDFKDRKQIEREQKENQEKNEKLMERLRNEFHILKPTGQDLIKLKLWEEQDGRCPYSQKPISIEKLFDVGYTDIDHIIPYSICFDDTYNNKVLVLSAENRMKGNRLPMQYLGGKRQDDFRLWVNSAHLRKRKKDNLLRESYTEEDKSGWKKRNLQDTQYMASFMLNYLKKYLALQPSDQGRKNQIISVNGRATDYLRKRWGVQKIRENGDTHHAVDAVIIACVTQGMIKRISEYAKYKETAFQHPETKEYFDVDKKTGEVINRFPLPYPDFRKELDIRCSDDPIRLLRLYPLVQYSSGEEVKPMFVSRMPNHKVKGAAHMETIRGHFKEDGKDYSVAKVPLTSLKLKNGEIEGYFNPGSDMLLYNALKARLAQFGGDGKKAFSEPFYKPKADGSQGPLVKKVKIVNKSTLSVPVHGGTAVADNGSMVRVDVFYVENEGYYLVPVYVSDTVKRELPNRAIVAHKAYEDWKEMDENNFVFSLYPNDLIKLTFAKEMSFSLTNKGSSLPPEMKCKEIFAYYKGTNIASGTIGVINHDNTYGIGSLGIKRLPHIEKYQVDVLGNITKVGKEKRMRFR
As to conditions: TXTL; PAM NNNNGTKA

For data set [3], the system named is T3, OMNI-95 (metagenomic, unknown).
T3 sequence: T1 sequence
As to conditions: TXTL; PAM NNGYAANN

Regarding “GGAAGAGCAGAGCCUUGGUCUCGUUGUAGCUCCCUGUUAAUGAAAACUAACAGGUUACUACAAUAAGGUCUUAGGACCGCAAAGCUCUAUCGCCCUACAUCCGUAGGGCGAUAUCUUUUUAUACAUUUUUU / GGAAGAGCAGAGCCTTGGTCTCNNNNNNNN / NNNNNNNNGAGACCAAGGCTCTGCTCTTCC [T2 sgRNA 5 V1 ; T2 protospacer + 8N PAM library (pbPOS T2)]”, in data set [1], the activity (1-depletion score) turned out to be 0.69. “GGAAGAGCAGAGCCUUGGUCUCGUUGUAGUUCCCUAAUUAUGAAAACAAUUAGGUUACUAUGAUAAGGUAGUAUACCGCAAAGCUCUAACGCCUCAUCUUAAUGAUGGGGCGUUAUCUUUUUU / GGAAGAGCAGAGCCTTGGTCTCNNNNNNNN / NNNNNNNNGAGACCAAGGCTCTGCTCTTCC [T2 sgRNA 38 V1 ; T2 protospacer + 8N PAM library (pbPOS T2)]” came in with an activity (1-depletion score) in data set [2] of 0.97.

In data set [3], “GGAAGAGCAGAGCCUUGGUCUCAUUUUAGUACCUGGAGAAAGAAAUUUCUUCAGACCUACUAAAACAAGGCUUUAUGCCGAAAGUUUUUUUGAUUUGAAUUGAAUGAGUUGAAAGAGGAUGCCGACGGGUGUCCUCUUUUUUU / GGAAGAGCAGAGCCTTGGTCTCNNNNNNNN / NNNNNNNNGAGACCAAGGCTCTGCTCTTCC [T2 sgRNA 6 V1 ; T2 protospacer + 8N PAM library (pbPOS T2)]” returned an activity (1-depletion score) of 0.77.
